# According to US20180369344:
# B1: wildtype Cela2a (protein)
# chain: VVGGEEARPNSWPWQVSLQYSSNGKWYHTCGGSLIANSWVLTAAHCISSSRTYRVGLGRHNLYVAESGSLAVSVSKIVVHKDWNSNQISKGNDIALLKLANPVSLTDKIQLACLPPAGTILPNNYPCYVTGWGRLQTNGAVPDVLQQGRLLVVDYATCSSSAWWGSSVKTSMICAGGDGVISSCNGDSGGPLNCQASDGRWQVHGIVSFGSRLGCNYYHKPSVFTRVSNYIDWINSVIANN
# Target: alpha1 antitrypsin (AAT), P01009
# Sequence (P01009 whole entry, looked up): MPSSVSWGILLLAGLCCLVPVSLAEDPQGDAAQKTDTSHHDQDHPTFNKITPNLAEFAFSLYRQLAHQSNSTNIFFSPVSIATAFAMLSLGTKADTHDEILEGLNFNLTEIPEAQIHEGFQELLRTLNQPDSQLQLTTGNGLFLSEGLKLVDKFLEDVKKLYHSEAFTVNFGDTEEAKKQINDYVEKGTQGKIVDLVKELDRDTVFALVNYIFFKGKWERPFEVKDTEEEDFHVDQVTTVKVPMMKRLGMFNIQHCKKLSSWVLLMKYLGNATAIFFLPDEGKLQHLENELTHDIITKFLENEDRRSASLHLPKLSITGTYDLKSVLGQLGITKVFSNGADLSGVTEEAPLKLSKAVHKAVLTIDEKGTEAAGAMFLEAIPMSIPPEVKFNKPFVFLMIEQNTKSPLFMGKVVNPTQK
protein,measurement,value
B1,cleavage of alpha1-antitrypsin,Cela2a cleaves alphal-antitrypsin.
